Values quoted from earlier work, collected in publication doi:10.1101/2025.04.18.649563.

Biological target: F-actin (Oryctolagus cuniculus) (UniProt P68135)
Settings: cited from earlier work

For LifeAct (from UniProt Q08641), the Kd is given as 2200 nM.
